We go through two molecules from article PMC7527721, “Beyond Toxin Transport: Novel Role of ABC Transporter for Enzymatic Machinery of Cereulide NRPS Assembly Line” (mBio, 2020).

Experiment [1] concerns the target C-terminal condensation domain C* of CesA (BACTH fusion) (Bacillus cereus F4810/72) (UniProt Q20CI9). Put plainly: two-hybrid; BACTH in E. coli BTH101, β-galactosidase activity (Miller assay, ONPG, 28°C) of cells from LB-IPTG plates, normalized to the negative control (T18 and T25 alone).
The target in experiment [2] is T1, CesD, transmembrane protein of the ABC transporter CesCD (BACTH fusion) (Bacillus cereus F4810/72, UniProt Q20CI6 1-268).
T1 construct: CesD, transmembrane protein of the ABC transporter CesCD, B. cereus F4810/72, NCBI ABK00530.1; also called T25-CesD; source: bacterial two-hybrid (BACTH) fusion, E. coli BTH101; not shown: T18 or T25 fragment of B. pertussis adenylate cyclase (several combinations tested), N-terminal or C-terminal, kept
T1 sequence: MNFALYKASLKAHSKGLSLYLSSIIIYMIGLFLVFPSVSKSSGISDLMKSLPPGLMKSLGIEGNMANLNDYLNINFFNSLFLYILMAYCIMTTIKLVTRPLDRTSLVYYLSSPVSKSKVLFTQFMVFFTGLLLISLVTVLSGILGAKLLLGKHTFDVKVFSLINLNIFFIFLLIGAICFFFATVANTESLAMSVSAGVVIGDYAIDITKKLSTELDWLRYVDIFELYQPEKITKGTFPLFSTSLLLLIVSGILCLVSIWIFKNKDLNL
The experiment is described as above. Particulars: partners not purified.

On to “CesC K40M (BACTH fusion) (from UniProt Q20CI7 1-291) (natural protein)”, for which, in experiment [1], the decrease in β-galactosidase activity against wild-type CesC turned out to be 30%.

B1: CesC, ATPase of the ABC transporter CesCD (BACTH fusion) (natural protein)
chain: MIKIEGLTKEFGNGKGIFDVTFEVKQGEVFGFLGPNGAGKSTTIRHLMGFIKPSKGAATINGFDCWKEADQVKKRVGYLPGEIAFPEEMTAYDFIRLIAGMKGMSDLGRAEEFIEKFQLDMRVHIKKMSKGMKQKLAIVAAFLHDPDILILDEPSTGLDPLMQNILVDFILEEKKCGKTILISSHIFDEIKDTADTICIIKNGKIVESGDLKTLKSAQKRYLKAYFTQEVDVELLQRSNLQIEKVENLVATILIQQNINEIMRELMKYDLINVEIMEPEIKDIFIKHYENR
notes: also called T18-CesC; CesC-T18; source: bacterial two-hybrid (BACTH) fusion, E. coli BTH101; not shown: T18 or T25 fragment of B. pertussis adenylate cyclase (several combinations tested), N-terminal or C-terminal, kept
Take B1: the “β-galactosidase activity, fold of the negative control” value in experiment [2] is about 20 fold.
